Laboratory results from US20130183306A1 (INTERNATIONAL DRUG DEVELOPMENT BIOTECH, published 2013).

Target: T1, human complement C1q (from natural human complement serum) (human, UniProt P02745 23-245; P02746 28-253; P02747 29-245)
T1 construct: Whole human complement serum was added to the coated MAb; also called complement human serum
Experiment: ELISA, MAb coated on the plate, natural human complement added, detection with anti-human C1q peroxidase conjugate
Experimental: The binding of human complement serum to MAbs was assessed by an ELISA binding assay. The 96-well plates (Nunc) were coated overnight at 4° C. with varying MAb concentrations. After washing, the plates were blocked with PBS-5% BSA for 1 h, and incubated for 1 h with 2.5 μl/well of natural human complement (Sigma). Then, 100 μl/well of a 1/500 dilution of sheep anti-human C1q peroxidase-conjugated Ab (Abd Serotec) added and incubated for 1h. The plates were developed with 100 μl per well of TMB substrate (Uptima Interchim). After H₂SO₄ addition, the OD was measured at 450 nm/630 nm using a MRX II microplate reader. Data represent mean+/−SD of two independent experiments.

T1 sequence (P02745 23-245 limits assumed, chain 1 of 3): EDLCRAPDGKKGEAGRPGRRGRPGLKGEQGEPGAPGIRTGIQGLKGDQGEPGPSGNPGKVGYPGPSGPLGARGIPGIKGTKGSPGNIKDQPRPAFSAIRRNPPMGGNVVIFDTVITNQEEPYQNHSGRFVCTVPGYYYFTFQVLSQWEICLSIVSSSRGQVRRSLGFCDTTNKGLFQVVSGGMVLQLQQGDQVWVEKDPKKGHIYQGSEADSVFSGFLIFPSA
T1 sequence (P02746 28-253 limits assumed, chain 2 of 3): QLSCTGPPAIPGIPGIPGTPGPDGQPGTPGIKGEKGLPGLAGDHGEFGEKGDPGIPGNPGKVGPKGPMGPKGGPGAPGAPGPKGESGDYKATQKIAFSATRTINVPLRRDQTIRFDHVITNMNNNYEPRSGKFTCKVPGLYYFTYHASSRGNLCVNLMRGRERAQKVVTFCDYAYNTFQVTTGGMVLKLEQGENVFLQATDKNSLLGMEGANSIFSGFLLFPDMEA
T1 sequence (P02747 29-245 limits assumed, chain 3 of 3): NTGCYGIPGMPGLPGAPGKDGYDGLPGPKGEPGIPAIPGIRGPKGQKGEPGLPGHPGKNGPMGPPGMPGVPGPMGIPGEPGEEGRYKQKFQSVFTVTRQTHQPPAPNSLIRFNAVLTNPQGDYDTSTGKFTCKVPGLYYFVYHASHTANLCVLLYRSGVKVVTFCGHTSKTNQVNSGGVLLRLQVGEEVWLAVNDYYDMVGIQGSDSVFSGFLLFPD

binding result: binds
B1: chR005-1 Fc24 (antibody, human IgG1, name in EU numbering)
heavy: QVQLQQSGAELVRPGSSVKISCKASGYAFSSYWVNWMKQRPGQGLEWIGQIYPGDGDTNYNGKFKGRATVTADKSSSTSYMQFSSLTSEDSAVYFCARSITTVVGCAMDYWGQGTSVTVSSASTKGPSVFPLAPSSKSTSGGTAALGCLVKDYFPEPVTVSWNSGALTSGVHTFPAVLQSSGLYSLSSVVTVPSSSLGTQTYICNVNHKPSNTKVDKKVEPKSCDKTHTCPPCPAPELLGGPSVFLLPPKPKDTLMISRTPEVTCVVVDVSHEDPEVKFNWYVDGVEVHNAKTKPPEEQYNSTLRVVSLLTVLHQDWLNGKEYKCKVSNAALPAPIAKTISKAKGQPREPQVYTLPPSRDELTKNQVSLTCLVKGFYPSDIAVEWESNGQPENNYKTTPLVLDSDGSFFLYSKLTVDKSRWQQGNVFSCSVMHEALHNHYTQKSLSLSPGK
light: DIQMTQSSAYLSVSLGGRVTITCKASDHINNWLAWYQHKPGNAPRLLISGATTLETGVPSRFSGSGSGKDYTLSITSLQTEDVATYYCQQSWNTPWTFGGGTK
notes: also called chR005-1 MAb Fc24 optimized variant; not shown: human light chain constant region
